{"source": "patent US11673947B2", "about": "“Target tissue-specific antigen-binding molecule” (Chugai Seiyaku Kabushiki Kaisha, priority 2012, dated 2023)", "molecules": {"B1": {"name": "6RNMSC1-2_F02: antibody that binds to hIL-6R in the presence of kynurenine; SEQ ID NOs: 86 and 87 (antibody, listed as Homo sapiens, V domains shown)", "VH": "QVQLVQSGAEVKKPGSSVKVSCKASGGTFSSYAISWVRQAPGQGLEWMGGIIPIFGTANYAQKFQGRVTITADESTSTAYMELSSLRSEDTAVYYCARDAPVVARPRGAFDIWGQGTMVTVSS", "VL": "DIVMTQTPLSSPVTLGQPASISCRSSQSLVHSDGNTYLSWLQQRPGQPPRLLIHEISNRFSGVPDRFSGSGAGTNFTLKISRVEAEDVGVYYCMQATQFPRTFGQGTKVEIK"}}, "key": {"hIL-6R": {"molecular_target": "T1, hIL-6R (Homo sapiens, UniProt P08887)", "T1 sequence (P08887 20-355 limits assumed)": "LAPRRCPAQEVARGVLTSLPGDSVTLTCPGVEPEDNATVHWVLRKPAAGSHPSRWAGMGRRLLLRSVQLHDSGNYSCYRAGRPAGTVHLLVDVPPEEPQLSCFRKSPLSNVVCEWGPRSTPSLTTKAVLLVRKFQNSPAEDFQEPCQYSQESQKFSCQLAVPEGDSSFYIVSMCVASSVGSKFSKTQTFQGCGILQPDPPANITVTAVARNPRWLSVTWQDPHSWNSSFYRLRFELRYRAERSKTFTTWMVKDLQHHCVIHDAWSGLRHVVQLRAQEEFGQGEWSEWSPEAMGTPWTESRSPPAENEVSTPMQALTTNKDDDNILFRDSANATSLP", "test": "IgG ELISA, binding to hIL-6R in the presence or absence of each small molecule, amino acid or amino acid metabolite", "experimental": "Three types of antibodies obtained: 6RNMSC1-2_F02 and 6RNMSC1-3_G02, and GC413 were subjected to ELISA under the nine conditions described in Table 3. Meanwhile, each small molecule was appropriately prepared at the concentrations shown in Table 3 using the buffers indicated in Table 19. The antigen used was biotin-labeled hIL-6R.\nFirst, a StreptaWell 96 microtiter plate (Roche) was coated at room temperature for one hour or more with 100 μl of PBS containing biotin-labeled hIL-6R. After washing with Wash buffer to remove unbound biotin-labeled hIL-6R from the plate, each well was blocked for one hour or more with 250 μl of Blocking Buffer. After Blocking Buffer was removed from each well, the purified IgGs were prepared to 2.5 μg/ml in Sample Buffer containing small molecules at the final concentrations shown in Table 3, and each was aliquoted at 100 μl into the plate. The plate was allowed to stand at room temperature for one hour to allow binding of each IgG to biotin-labeled hIL-6R in each well. After washing with Wash Buffer containing small molecules at the final concentrations shown in Table 3, an HRP-conjugated anti-human IgG antibody (BIOSOURCE) diluted with Sample Buffer containing the same small molecules was added to each well. The plate was incubated for one hour. Following wash with Wash Buffer containing each small molecule, the TMB single solution (ZYMED) was added to each well. The chromogenic reaction in the solution of each well was terminated by adding sulfuric acid. Then, the developed color was assessed by measuring absorbance at 450 nm.\n6RNMSC1-2_F02 described in Example 14, which has antigen-binding activity in the presence of kynurenine, and negative control GC413 were subjected to ELISA under the seven conditions described in Table 18. Meanwhile, each small molecule was appropriately prepared at the concentrations shown in Table 18 using the buffers indicated in Table 4. The antigen used was biotin-labeled hIL-6R. ELISA was carried out using the method described in Example 11."}, "[1]": {"system": "BaF/hIL6R (Ba/F3 cells expressing human IL-6 receptor)", "test": "ADCC (chrome release) with human PBMC as effector cells against BaF/hIL6R cells", "assay_type": "cell-based", "experimental": "Variant 6RNMSC1-2_F02 with increased effector activity (the heavy chain and light chain sequences are shown in SEQ ID NOs: 94 and 91, respectively) was used. At various concentrations of 6RNMSC1-2_F02, ADCC activity against hIL-6R-expressing cells was assayed in the presence or absence of kynurenine according to the method described in Reference Example 1.\nFurthermore, there is a difference in the kynurenine concentration between normal and tumor tissues, and thus it is preferable that the ADCC activity of an antibody is exerted against antigen-expressing tumor cells only at the kynurenine concentration in tumor tissues, while at the normal-tissue kynurenine concentration, the ADCC activity is impaired or not exerted. Then, 6RNMSC1-2_F02 was assessed for ADCC activity against hIL-6R-expressing cells at various kynurenine concentrations according to the method described in Reference Example 2. […] Furthermore, in contrast to the approximately 10% ADCC activity at 4 to 6 μM which is considered to be the kynurenine concentration in normal tissues, the ADCC activity at 30 to 40 μM which is considered to be the kynurenine concentration in tumor tissues was about 25%.\nAntibodies that bind antigens in a kynurenine-dependent manner were assessed for their ADCC activity against antigen-expressing cells at different antibody concentrations according to the method described below. Human peripheral blood mononuclear cells (hereinafter referred to as human PBMC) were used as effector cells to measure the ADCC activity of each test antibody as follows.\nSyringes pre-filled with 200 μl of 1000 units/ml heparin solution (Novo-Heparin 5000 units for Injection; Novo Nordisk) were used to collect 50 ml of peripheral blood from healthy volunteers (male adult) affiliated with Chugai Pharmaceutical Co. Ltd. The peripheral blood was diluted two-fold with PBS(−), and divided into four equal parts, each of which was transferred into a pre-centrifuged leukocyte separation tube Leucosep (Greiner Bio-One) containing 15 ml of Ficoll-Paque PLUS. The separation tubes containing an aliquot of the peripheral blood were centrifuged at 2150 rpm for ten minutes at room temperature. Then, the resulting mononuclear cell fractions were collected from the tubes. The cells in each fraction were washed once with RPMI-1640 (nacalai tesque) supplemented with 10% FBS (hereinafter referred to as 10% FBS/RPMI), and then suspended at a cell density of 1×10^7 cells/ml in 10% FBS/RPMI. The cell suspensions were used as the human PBMC solution in subsequent experiments. […]\nADCC activity was assessed based on specific chrome release rate determined by chrome release assay. […]"}}}
{"molecule": "B1", "values": [{"measurement": "absorbance under condition 5 compared to condition 1", "setting": "hIL-6R; Table 18: condition 5 (3-hydroxykynurenine solution)", "value": "the same high absorbance"}, {"measurement": "absorbance under condition 7 as compared to condition 1", "setting": "hIL-6R; Table 18: condition 7 (absence of small molecules) vs condition 1 (kynurenine solution)", "value": "markedly lower"}, {"measurement": "absorbance under other conditions", "setting": "hIL-6R; Table 18: remaining conditions, incl. tryptophan", "value": "markedly lower"}, {"measurement": "absorbance under condition 7 compared to condition 8", "setting": "hIL-6R; condition 7 (100 μM kynurenine)", "value": "the same"}, {"measurement": "absorbance under condition 9 as compared to condition 8", "setting": "hIL-6R; condition 9 (in the absence of small molecules) vs condition 8 (complete small molecule cocktail solution)", "value": "markedly lower"}, {"measurement": "absorbance under other conditions", "setting": "hIL-6R; remaining conditions of Table 3", "value": "markedly lower"}, {"measurement": "ADCC activity", "setting": "[1]; at 4 to 6 μM kynurenine (considered the concentration in normal tissues)", "value": "approximately 10%"}, {"measurement": "ADCC activity", "setting": "[1]; at 30 to 40 μM kynurenine (considered the concentration in tumor tissues)", "value": "about 25%"}, {"measurement": "ADCC activity against hIL-6R-expressing cells", "setting": "[1]; in the presence of kynurenine, various antibody concentrations, variant with increased effector activity", "value": "induced by 6RNMSC1-2_F02 in an antibody concentration-dependent manner"}, {"measurement": "ADCC activity against hIL-6R-expressing cells at various kynurenine concentrations", "setting": "[1]; various kynurenine concentrations", "value": "kynurenine concentration-dependent manner"}]}
